Positions count from the first letter of the chain named.
Assays:
Assay in all cases: flow cytometry on cells
[1] = target: T1, C-terminally truncated wild-type Ste2p (Saccharomyces cerevisiae, UniProt D6VTK4 1-303)
T1 sequence (looked up): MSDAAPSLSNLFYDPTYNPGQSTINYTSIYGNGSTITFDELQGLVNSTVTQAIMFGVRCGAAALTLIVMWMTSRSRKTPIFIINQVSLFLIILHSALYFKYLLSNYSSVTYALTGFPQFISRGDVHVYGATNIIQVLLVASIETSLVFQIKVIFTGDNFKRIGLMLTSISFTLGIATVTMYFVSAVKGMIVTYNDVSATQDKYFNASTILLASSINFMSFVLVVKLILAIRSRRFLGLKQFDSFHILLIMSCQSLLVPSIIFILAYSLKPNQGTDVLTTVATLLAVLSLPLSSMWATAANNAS

[2] = target: T2, C-terminally truncated Ste2p F38Y (Saccharomyces cerevisiae, UniProt D6VTK4 1-303, F38Y)
T2 sequence (looked up): T1 sequence (looked up) with F38Y

[3] = target: T3, C-terminally truncated Ste2p H94Y (Saccharomyces cerevisiae, UniProt D6VTK4 1-303, H94Y)
T3 sequence (looked up): T1 sequence (looked up) with H94Y

[4] = target: T4, C-terminally truncated Ste2p S104Y (Saccharomyces cerevisiae, UniProt D6VTK4 1-303, S104Y)
T4 sequence (looked up): T1 sequence (looked up) with S104Y

[5] = target: T5, full-length wild-type Ste2p (Saccharomyces cerevisiae, UniProt D6VTK4 1-431)
T5 sequence (looked up): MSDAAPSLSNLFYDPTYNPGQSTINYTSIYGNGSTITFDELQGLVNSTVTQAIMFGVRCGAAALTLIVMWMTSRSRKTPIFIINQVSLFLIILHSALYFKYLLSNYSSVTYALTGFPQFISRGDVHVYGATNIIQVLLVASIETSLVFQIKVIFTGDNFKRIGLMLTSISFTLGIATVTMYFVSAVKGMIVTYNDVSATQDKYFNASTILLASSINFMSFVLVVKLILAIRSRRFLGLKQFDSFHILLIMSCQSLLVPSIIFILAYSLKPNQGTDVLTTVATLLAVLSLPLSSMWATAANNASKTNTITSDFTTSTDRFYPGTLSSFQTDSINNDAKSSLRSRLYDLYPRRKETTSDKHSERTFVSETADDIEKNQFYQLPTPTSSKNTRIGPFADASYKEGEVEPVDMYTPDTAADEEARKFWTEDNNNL

full-length Ste2p S95Y = target: T6, full-length Ste2p S95Y (Saccharomyces cerevisiae, UniProt D6VTK4 1-431, S95Y)
T6 sequence (looked up): T5 sequence (looked up) with S95Y

- Kd [1]: 19 ± 3.8 nM
- Kd [2]: 59 ± 11 nM
- Kd [3]: 47 ± 8.1 nM
- Kd [4]: 12 ± 3.4 nM
- Kd [5]: 7.3 ± 0.9 nM
- Kd (full-length Ste2p S95Y): 2.1 ± 1.5 nM
B1: [K^7(NBD),Nle^12] α-factor (peptide)
chain: WHWLQLKPGQPMY
modifications: NBD (7-nitrobenz-2-oxa-1,3-diazol-4-yl) conjugated to the lysine at position 7; norleucine at position 12 in place of methionine
